Measurements from patent publication US20120264231A1, “ASSAY FOR ORAI CALCIUM CHANNEL REGULATORS” (IMMUNE DISEASE INSTITUTE, INC., priority 2009, published 2012).

Biological target: T1, GST-ORAI1^CT (Homo sapiens, UniProt Q96D31)
T1 construct: cDNA encoding ORAI1 residues 259-301 was amplified using PCR; made in house; host or cells: E. coli BL21 (DE3), pGEX-4T-1
Assay: GST pull down assay with GST-ORAI1^CT (residues 259-301)
Format: binding
Details: SDS-PAGE, Coomassie staining
Excerpt: Recruitment of ORAI1 to puncta by full-length STIM 1 depends on a direct or indirect interaction of STIM 1 with the C-terminal cytoplasmic tail of ORAI134,51. Therefore the direct interaction of recombinant STIM 1 proteins was next examined with a bacterially expressed fusion protein, GST-ORAI^CT, containing the cytoplasmic tail of ORAI1, residues 259-301. STIM 1^CT and the other STIM 1 fragments, except for STIM 1 (233-463), bound to GST-ORAI1^CT immobilized on resin (FIG. 2B). Binding was dependent on recognition of ORAI^CT, since there was no binding to GST alone. Because all input and bound proteins on the gel was visualized with Coomassie Brilliant Blue staining and detected no other proteins, the current experiment is unambiguous proof of a direct protein-protein interaction between STIM 1^CT and ORAI1^CT.
The cDNAs encoding mouse STIM 1^CT fragments (residues 233-685, 233-666, 233-600, 233-531, 233-498, or 233-463) were amplified via PCR and cloned into the pProEX HTb vector (Invitrogen) between the BamHI and XhoI sites for expression as His-tagged proteins. For production of the C-terminal cytoplasmic tail of ORAI 1 as a GST fusion protein, coupled to GST through the flexible linker—GSGSRGSPEF—(SEQ ID NO: 1), cDNA encoding ORAI1 residues 259-301 was amplified using PCR and cloned into the pGEX-4T-1 vector (GE Healthcare) between the BamHI and NotI sites. […]

T1 sequence (Q96D31 259-301): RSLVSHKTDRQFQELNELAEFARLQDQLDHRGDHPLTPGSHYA

STIM1^CT: cytoplasmic region of STIM1, mouse residues 233-685, His-tagged recombinant protein expressed in E coli
binding to GST-ORAI1^CT immobilized on resin: bound
